In the supplement of paper PMC9170038:

System: MS2 coat protein
Test: apparent KD of MS2 coat protein; designed switch direction (-1 OFF switch, 1 ON switch): 1; higher = weaker reporter binding
Method in brief: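 The buffer was Tris-HCl pH 7.5 with KCl, MgCl2, BSA, DTT, tRNA and Tween-20. In it, SNAP-549-labelled MS2 coat protein was titrated in doubling steps from 0.7 or 1.5 nM to 3 µM over chip-bound RNA switches transcribed by stalled E. coli RNA polymerase on Illumina chips. Apparent KD is the per-design median over clusters of curve fits to normalised fluorescence.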

[1] = Eterna round: R95, input ligand: FMN 200 uM
[2] = Eterna round: R95, input ligand: microRNA oligo, concentration not stated
[3] = Eterna round: R95, input ligand: none
[4] = input ligand: microRNA oligo, concentration not stated

Sequence	apparent KD of MS2 coat protein [1] [µM]	apparent KD of MS2 coat protein [2] [µM]	apparent KD of MS2 coat protein [3] [µM]	apparent KD of MS2 coat protein (input ligand: FMN 200 uM) [µM]	apparent KD of MS2 coat protein [4] [µM]	apparent KD of MS2 coat protein (input ligand: none) [µM]
AGUCCAGCCUGAGCUGGACAAAAGCAUGUACAUGAGGAUCACCCAUGUUCAUGUACAAGCUUUUUGCUCGUCAAAAG [Mat - hsa-mir-208a - Mod of JL - 67] (puzzle: Sensor for hsa-mir-208a)	0.18	0.0183	0.372			
AGAUCAUGACGAGGAUAUGGUACAUGAGGAUCACCCAUGUAUGUACCAUAGCAACAGCUAGGAAACCAGAAGGCGUCGUGGUCA [jandersonlee JLSSNG2 1.18 Native F5 + F7] (Eterna round: R96, puzzle: Same State NG 2)				0.0136	0.0156	0.0266
UCAAUCAUGUAAGGAUAUGCAGCCGAAACGGCUGCAGAAGGUACUAUAAUUACAUGAGGAUCACCCAUGUUAUAAAAUUUAUAU [Mat - Same State NG 1 - JL mod - D67] (Eterna round: R96, puzzle: Same State NG 1)					0.085	
UGGCUCAGACGAGGAUAUACGUGGUCACAUGAGGAUCACCCAUGUCUCGAGCUUCGGCUCGAGGCGUAGAAGGCGUCUGAGCCA [SSNG2/6-A2] (Eterna round: R96, puzzle: Same State NG 2)				0.125	0.141	0.218
UUACCGCGGGUAGGAUAUGGUCACACUUCUAAAACAUGAGGAUCACCCAUGUCCGACACAUAAAGCCAGAAGGACCCGCGGCUC [Esbea] (Eterna round: R96, puzzle: Same State NG 2)				0.0208	0.0485	0.0714
UUAAUGAAGUAAGGAUAUACAUGAGGAUCACUCGUAGAAGGUACUAUACAUGAGGAUCACCCAUGUUCCGGUCAGAAGACUGGA [Mat - Same State NG 1 - JL mod - D3] (Eterna round: R96, puzzle: Same State NG 1)				0.598	0.411	0.316
UUCUCCUUUUUUUACAUGAGGAUCACCCAUGUUUUUCUUACGUAGGAUAUCGUUGAGUGUUUGUACGAGAAGGACGUAGUAAGU [JR_SSND3_Sub059] (Eterna round: R96, puzzle: Same State NG 3)				0.0379	0.0505	0.0679
CUGCGUAACACAGGAUAUACCUCCGCAAGGAACGUAGAAGGGUGAGUAGCAGACAUGAGGAUCACCCAUGUAAAGGCCAAGGCC [Enqudiso] (Eterna round: R96, puzzle: Same State NG 1)				0.0484	0.0957	0.098
AUUAAACAUGAGGAUCACCCAUGUAUUAUUAUGGGAGGAUAUGCGAAUUUAAUUAAUUAAGCAGAAGGCCUAAUUA [Mat - Same State 1 - D102] (puzzle: Same State 1)	0.0187	0.0983	0.141			
AAUUUAAUACAUGAGGAUCACCCAUGUAAUACUAGUAAGAUCUAGGAUAUCAGCUCGUUUAGAGCUGAGAAGGAGAUCACAUGU [SSNG3/19-C3] (Eterna round: R96, puzzle: Same State NG 3)					0.0621	
AGCUAUUAAUCAGGAUAUAGGGACAUGAGGAUCACCCAUGUGUACAUGAGUAAAUGUGAUCACGUCUAGAAGGGAUUACUAACA [SameState NG2 #38] (Eterna round: R96, puzzle: Same State NG 2)				0.184	0.0929	0.133
AGGCUCAGACGAGGAUAUACGUGGUCACAUGAGGAUCACCCAUGUCUCGAGCUUCGGCUCGAGGCGUAGAAGGUGUCUGAGCCA [SSNG2/6-C1] (Eterna round: R96, puzzle: Same State NG 2)				0.195	0.406	0.609
GGCGUAUAAACAUGAGGAUCACCCAUGUAGCGGAGACGCAAUGAGGAUAUCGAUGGGUUUCCCGUCGAGAAGGCGUGGGUCGCC [JL SSNG3 3.94] (Eterna round: R96, puzzle: Same State NG 3)				0.0206	0.0206	0.029
CAAAAUUAGUAGGAUAGGUACCCAGGAUGACAUGAGGAUCACCCAUGUAAGAGCUUUUUGCUCGUCAUUAACAGUUG [JR_SHM208a_Sub016] (puzzle: Sensor for hsa-mir-208a)	0.0557	0.0557	0.068			
GCUCGCACGAUGACCCACAUGAGGAUCACCCAUGUGUGUGGGUAGGAUAUCUAUAUUAAGGAUUUAGAGAAGGGCCGAGCGAGC [SameState NG3 #22] (Eterna round: R96, puzzle: Same State NG 3)				0.45	0.419	0.578
AGCUAAAACGAAGGAUAUACAAACAUGAGGAUCACCCAUGUAUACAUGGUUUGUUGUGACUACAUGUAGAAGGUCGUACUAACA [SameState NG2 #17] (Eterna round: R96, puzzle: Same State NG 2)				0.388	0.307	0.5
GAGUGGUUGGGAGGAUAUGCAUUGUUAUUAAAUGCAGAAGGUUUUAACAUGAGGAUCACCCAUGUAGGACUAUUCCUGUGUAUC [Parity 69 - Jieux - Same State NG 1] (Eterna round: R96, puzzle: Same State NG 1)				0.013	0.0121	0.0158
UAAUGUUUGCGAGGAUAUCGUUUAUUGAAGUUACGAGAAGGCGCUCUUCUUACAUGAGGAUCACCCAUGUCUGUUUUGCAUGAU [JR_SSNG1_Sub069] (Eterna round: R96, puzzle: Same State NG 1)				0.0444	0.0568	0.0815
ACAUGAGGAUCACCCAUGUAACACCUGAAAAUAAAACGAACACAGGAUAUCCCGGCAAGACACCGGGAGAAGGGUGAUCGAAGA [Eresorbe] (Eterna round: R96, puzzle: Same State NG 3)				0.411	0.0136	0.0909
UUGAUUAGAAAUUAACAUGAGGAUCACCCAUGUAUUGGAUCAGAGGAUAUGCAUGUUUGAUAGUAGCAGAAGGCUGAUGGUGGA [JR_SSNG3_Sub027] (Eterna round: R96, puzzle: Same State NG 3)				0.0683	0.0442	0.0458
GCUAGAAAUAAAGCCAACAUGAGGAUCACCCAUGUAUGUUGGCAGGAUAUCGUAUGCAAAGCAUACGAGAAGGGCCAAACUAGC [Mat - Same State NG 3 - JL Mod - D3] (Eterna round: R96, puzzle: Same State NG 3)				0.0373	0.085	0.117
AUAAGUUUGAUGCUCGUCUCUUCGUACAGACAUGAGGAUCACCCAUGUAGUCGGGAAGUAGCCCGGCCAGUAUGACC [Usraisqu] (puzzle: Sensor for hsa-mir-208a)	0.197	0.0405	0.468			
AGCCGAGACACAGGAUAUAGAUGUUUACAUGAGGAUCACCCAUGUAGCAACACGUGGUAGUGAUUCUAGAAGGGUGCUCGGCGC [Omei SS(NG)2 Cv11] (Eterna round: R96, puzzle: Same State NG 2)				0.0363	0.116	0.167
AGGCUCAGACUAGGAUAUAUGCGAUCACAUGAGGAUCACCCAUGUCUCGAGCUUCGGCUCGAGGCAUAGAAGGAGUCUGAGCCA [SSNG2/4-D1] (Eterna round: R96, puzzle: Same State NG 2)				0.0171	0.0308	0.057
UUAAUGAUGUAAGGAUAUACAUGAGGAAAUCUCGUAGAAGGUACAGGACAUGAGGAUCACCCAUGUGUCGCUCAGAAGAGCGUA [Mat - Same State NG 1 - JL mod - D18] (Eterna round: R96, puzzle: Same State NG 1)				0.0863	0.0396	0.0712
CGAGAGUGCGUAGGAUAUCCGAAAGGAAGUGUAGGAGAAGGGCGGAACGCUCAUCGAAAACAUGAGGAUCACCCAUGUACAAAU [PowerStrip SSNG 1.17] (Eterna round: R96, puzzle: Same State NG 1)				0.0247	0.0627	0.0439
AGCUAUCGAAAACGAUAGCAAAAGCAUGUACAUGAGGAUCACCCAUGUCAUGUACAAGCUUUUUGCUCGUUUUAAAA [Zipper 23 - 15] (puzzle: Sensor for hsa-mir-208a)	0.0201	0.0378	0.0525			
AAUUAAUUAAUACAUGAGGAUCACCCAUGUAAUUAUUAGAUCAAGGAUAUCAGCUCGAUUAGAGCUGAGAAGGUGAUCACAUGU [SSNG3/18-A2] (Eterna round: R96, puzzle: Same State NG 3)					0.282	
AAUUAUUAACAUGAGGAUCACCCAUGUAUAAGGGAGAAUAUUAUUAUUAUUAUUAACAAGCUUUUUGCUUGUCUCAU [Ribo-boogie] (puzzle: Sensor for hsa-mir-208a version 2)	0.0486	0.0679	0.0684			
UGUUGUAUUACAGGAUAUCUAUUAUUUUUAUAUAGAGAAGGGUAUUCACAUGAGGAUCACCCAUGUAUAUACGAGGAAGUUGUG [JMF's solution 28] (Eterna round: R96, puzzle: Same State NG 1)					0.0296	
